Several values for one entry are separate records, joined by “and”; a condition that tells them apart may be missing. Equal entries are not always repeated. Where two headings read alike, the source gives them in different places.
T1: Avi/HisMsIL18BPd (recombinant mouse IL-18BP with Avi and poly-His tags) (mouse, biotinylated with BirA on the Avi tag in some assays)
T1 construct: also called murine IL-18BP; IL-18BP-Avi-His (mouse)
T1 chain: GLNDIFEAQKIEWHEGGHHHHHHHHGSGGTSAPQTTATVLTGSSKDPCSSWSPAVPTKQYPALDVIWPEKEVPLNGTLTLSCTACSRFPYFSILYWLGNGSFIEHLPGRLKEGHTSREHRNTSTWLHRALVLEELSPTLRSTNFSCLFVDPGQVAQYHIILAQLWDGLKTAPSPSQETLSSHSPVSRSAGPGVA

T2: Avi/His-HuIL18BPa (recombinant human IL-18BP isoform A with Avi and poly-His tags) (human, biotinylated with BirA on the Avi tag in some assays)
T2 construct: also called human IL-18BP-Avi-His
T2 chain: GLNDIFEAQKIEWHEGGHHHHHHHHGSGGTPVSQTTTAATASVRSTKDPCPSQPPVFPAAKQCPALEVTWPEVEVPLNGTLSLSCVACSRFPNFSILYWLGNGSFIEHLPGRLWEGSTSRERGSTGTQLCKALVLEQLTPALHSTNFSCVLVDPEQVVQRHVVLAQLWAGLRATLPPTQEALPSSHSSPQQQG

T3: His/Avi-CynoIL18BP (recombinant cynomolgus IL-18BP with His and Avi tags) (cynomolgus monkey)
T3 construct: also called cynomolgus IL-18BP-Avi-His
T3 chain: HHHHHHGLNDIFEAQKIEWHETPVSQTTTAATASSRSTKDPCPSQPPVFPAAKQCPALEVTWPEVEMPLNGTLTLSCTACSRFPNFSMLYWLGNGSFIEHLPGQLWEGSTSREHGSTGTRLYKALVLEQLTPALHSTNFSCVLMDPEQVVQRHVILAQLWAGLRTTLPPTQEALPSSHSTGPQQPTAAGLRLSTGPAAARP

T4: mouse IL-18BPd-human IgG Fc (R&D Systems, Cat. #122-BP-100) (mouse; human, UniProt Q9Z0M9 29-193)
T4 construct: Bought; also called mouse IL-18BPd-Fc Chimera
T4 sequence (looked up): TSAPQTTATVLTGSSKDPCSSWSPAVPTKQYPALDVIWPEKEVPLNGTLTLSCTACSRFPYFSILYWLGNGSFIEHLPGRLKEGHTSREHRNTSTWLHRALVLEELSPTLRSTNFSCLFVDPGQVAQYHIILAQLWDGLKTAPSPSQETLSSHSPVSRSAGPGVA

B1: anti-IL18BP antibody BP-05 (antibody, human IgG1, V domains shown)
VH: EVQLQQSGPELVKPGASVKIPCKASGYTFTDYNMDWVKQSHGKSLEWIGNINTNNGGTVYNQKFKDKATLTVDKSSSTAYMELRSLTSEDTAVYYCARSDTTVVASRYYALDYWGQGTSVTVSS
VL: DIVLTQSPASLAMSLGKRATISCRASESVSIIGTDLIHWYQQKPGQPPKLLIYHASNLETGVPARFSGSGSRTDFTLTIDPVEEDDVAIYYCLQSRKIPPTFGGGTKLEIK
B2: anti-IL18BP antibody BP-04 (antibody, V domains shown)
VH: HVHLHQSGAELVRPGVSVKISCRGSGYTFTDYDVHWVKQSHAKSLEWIGVISTYYGDVGYNQEFKGKATMTLDKSSSTSYLELARLTSEDSAIYYCARSGTYYYGTRESHALDYWGQGTSVTVSS
VL: DIQMTQSPASLSVSVGETVTITCRTSDNVYSNLAWYQQKQGKSPQLLVYGAINLADGVPSRFSGSGSDTQYSLKINNLQSEDFGSYYCQHFWGNPYTFGGGTKLEIK
notes: also called BP-04 (hybridoma); BP-04 (parental)
B3: anti-IL18BP antibody BP-13 (antibody, human IgG1, V domains shown)
VH: QVQLQQSGAELVRPGASVTLSCKASGYTFTDYEMHWVKQTPVHGLEWIGPIDPETGDTAYNQKFKGQATLTADKSSSTAYMELSSLTSEDSAVYYCTRGSRGVFDYWGQGTALTVSS
VL: DIVMTQSHKFMSTSVGDRVSITCKASQDVGTAVAWYQQKPGQSPKLLIYWASARHTGVPDRFTGSGSGTDFTLTISNVQSEDLADYFCQHYFNFPRTFGGGTKLEIT
B4: anti-IL18BP antibody BP-10 (antibody, human IgG1, V domains shown)
VH: QVQLQQPGAERVEPGASVRLSCKTSGYTFTNYWMHWVKQRPGQGLEWIGMIHPESGSTNNNEKFKSKATLTVDKSSSTAYMQLSSLTSEDSAVYYCARWDRGYFDYWGQGTTLTVSS
VL: DIVMTQSHKFMSTSVGDRVSITCKASQDVRSTVGWYQQRPGQSPKLLIYWTSTRHTGVPDRFTGSGSGTDYTLTISSVQAEDLALYYCQQHYSTPYTFGGGTTLEIK
B5: anti-IL18BP antibody BP-15 (antibody, human IgG1, V domains shown)
VH: QVQLVQSGAEVKKPGASVKVSCKASGYTFTTYDINWVRQAPGQGLEWMGIINPSGGSTSYAQKFQGRVTMTRDTSTSTVYMELSSLRSEDTAVYYCATGIGELDFDYWGQGTLVTVSS
VL: DIQMTQSPSSLSASVGDRVTITCRASQSISSYLNWYQQKPGKAPKLLIYKASTLHNGVPSRFSGSGSGTDFTLTISNLQPEDFATYYCQQAISFPLTFGGGTKVEIK
B6: anti-IL18BP antibody BP-12 (antibody, human IgG1, V domains shown)
VH: EVQLQQSGPELVKPGASVKMSCKTSGYTFTEYTMHWVKQSHGKSLEWIGGVNPNNGGTTYNQKFRDKATLTVDKSSSTTYMEVRTLTSDDSAVYYCAPLWRVFDYWGQGTTLTVSS
VL: DIVMTQSHKFMSSSVGDRVSITCKASQDVGTAVAWYQQKPGQSPKLLIYWASTRHTGVPDRFTGSGSGTDFTLTISNVQSEDLADYFCHQFSRYPLTFGAGTKLELK

Tests used:
[1] = target: T1, Avi/HisMsIL18BPd (recombinant mouse …); assay: ELISA, coated IL-18BP
[2] = target: T2, Avi/His-HuIL18BPa (recombinant human …); assay: ELISA, coated IL-18BP
[3] = target: T3, His/Avi-CynoIL18BP (recombinant …); assay: ELISA, coated IL-18BP
[4] = target: T4, mouse IL-18BPd-human IgG Fc (R&D …); assay: blocking ELISA, competitor mouse IL-18
[5] = target: T3, His/Avi-CynoIL18BP (recombinant …); assay: SPR Carterra LSA, IgG immobilized; WB = weak binding with KD > 1 µM
[6] = target: T2, Avi/His-HuIL18BPa (recombinant human …); assay: SPR Carterra LSA, IgG immobilized
[7] = target: T3, His/Avi-CynoIL18BP (recombinant …); assay: blocking ELISA, competitor rhesus IL-18
[8] = target: T2, Avi/His-HuIL18BPa (recombinant human …); assay: blocking ELISA, competitor human IL-18
[9] = target: T1, Avi/HisMsIL18BPd (recombinant mouse …); assay: cell-based or functional assay
[10] = target: T2, Avi/His-HuIL18BPa (recombinant human …); assay: cell-based or functional assay
[11] = target: T3, His/Avi-CynoIL18BP (recombinant …); assay: cell-based or functional assay
[12] = target: T3, His/Avi-CynoIL18BP (recombinant …); assay: SPR Carterra LSA, IgG immobilized
[13] = target: T1, Avi/HisMsIL18BPd (recombinant mouse …); assay: cell-based or functional assay
[14] = target: T2, Avi/His-HuIL18BPa (recombinant human …); assay: cell-based or functional assay
[15] = target: T2, Avi/His-HuIL18BPa (recombinant human …); assay: SPR Biacore T200, IgG captured on Protein A/G
[16] = target: T3, His/Avi-CynoIL18BP (recombinant …); assay: SPR Biacore T200, IgG captured on Protein A/G

Row | Binder | ELISA binding ratio (fold-change over background) [1] | ELISA binding ratio (fold-change over background) [2] | ELISA binding ratio (fold-change over background) [3] | blocking ELISA signal normalized to isotype control (=1) [4] | Kd [5] | Kd [6] | blocking ELISA signal normalized to isotype control (=1) [7] | blocking ELISA signal normalized to isotype control (=1) [8] | EC50 of IFNγ release, mouse splenocytes [9] | Fold change of IFNγ at 10 µg/ml vs baseline, mouse splenocytes [9] | EC50 of IFNγ release, human PBMC [10] | Fold change of IFNγ at 10 µg/ml vs baseline, human PBMC [10] | % of Max Gamma, human NK cells [11] | EC50 of IFNγ release, human NK cells [11] | Kd [12] | other results
1 | B1 | 32.1 fold over background | 38.3 fold over background | 9.7 fold over background | 0.138 ratio to isotype control | > 1000 nM | 1.67 nM | 0.989 ratio to isotype control | 0.191 ratio to isotype control | 2.94 nM | 3.15 fold | 1.33 nM | 16.4 fold | – | – | – | –
2 | B2 | 39.1 fold over background | 39.7 fold over background | 45.2 fold over background | 0.122 ratio to isotype control | – | 0.8 nM | 0.943 ratio to isotype control | 0.165 ratio to isotype control | 4.29 nM | 2.74 fold | 0.67 nM | 19 fold | 25.9% | 2.41 nM | 3 nM | EC50 of IFNγ release, mouse splenocytes [13]: 14.9 nM; EC50 of IFNγ release, human PBMCs [14]: 15.7 nM; Kd [15]: 1 nM and 1.1 nM; koff [15]: 0.00059 s⁻¹ and 0.00062 s⁻¹; kon [15]: 580000 M⁻¹ s⁻¹; Kd [16]: 7.3 nM and 8.5 nM; koff [16]: 0.0032 s⁻¹ and 0.0033 s⁻¹; kon [16]: 440000 M⁻¹ s⁻¹ and 390000 M⁻¹ s⁻¹
3 | B3 | 16.9 fold over background | 44.7 fold over background | 49 fold over background | 0.53 ratio to isotype control | – | 7.2 nM | 0.331 ratio to isotype control | 0.128 ratio to isotype control | 640 nM | 1.74 fold | 3.89 nM | 11.8 fold | 54.1% | 39.7 nM | 0.3 nM | –
4 | B4 | 40.8 fold over background | 42.1 fold over background | 48.1 fold over background | 0.326 ratio to isotype control | – | 1 nM | 0.28 ratio to isotype control | 0.067 ratio to isotype control | 538 nM | 2.85 fold | 2.05 nM | 15.5 fold | 55.2% | 6 nM | 0.02 nM | –
5 | B5 | 30.1 fold over background | 32.7 fold over background | 34.5 fold over background | 0.211 ratio to isotype control | > 1000 nM | 18.8 nM | – | – | 5.85 nM | 7.94 fold | 100 nM | 36 fold | 10% | 0.000106 nM | – | –
6 | B6 | 34.2 fold over background | 43.2 fold over background | 44 fold over background | 0.351 ratio to isotype control | – | 7.6 nM | 0.36 ratio to isotype control | 0.117 ratio to isotype control | 15.7 nM | 1.88 fold | 6.09 nM | 10.3 fold | 76.5% | 70 nM | 0.5 nM | –
